Test results reported in US12692310B2, “ASIC1 channel antagonist antibody” (ShanghaiTech University, priority 2019, dated 2026).

Columns and labels:
Assay in all cases: Subtype selectivity, FACS binding, transfected CHO-K1 cells
Assay type in all cases: cell-based
hASIC2a = target: T1, hASIC2a (Homo sapiens, UniProt Q16515)
T1 construct: expressed in transfected cells; host or cells: CHO-K1, transient
T1 sequence (Q16515 1-512): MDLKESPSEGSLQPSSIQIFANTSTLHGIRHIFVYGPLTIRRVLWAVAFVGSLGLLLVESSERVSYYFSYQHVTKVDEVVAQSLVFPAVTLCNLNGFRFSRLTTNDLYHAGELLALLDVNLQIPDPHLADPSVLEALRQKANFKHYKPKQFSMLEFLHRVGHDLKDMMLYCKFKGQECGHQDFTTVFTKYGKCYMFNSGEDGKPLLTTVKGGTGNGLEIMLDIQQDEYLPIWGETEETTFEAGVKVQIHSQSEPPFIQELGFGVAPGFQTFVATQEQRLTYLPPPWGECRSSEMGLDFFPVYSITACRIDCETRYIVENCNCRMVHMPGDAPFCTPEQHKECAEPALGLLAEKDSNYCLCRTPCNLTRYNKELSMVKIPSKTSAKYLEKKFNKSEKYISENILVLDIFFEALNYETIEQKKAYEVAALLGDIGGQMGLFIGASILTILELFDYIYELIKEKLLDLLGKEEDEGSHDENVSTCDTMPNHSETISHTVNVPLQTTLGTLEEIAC
Method: (§1) To test the species and subtype selectivity of ASC06-IgG1, vectors encoding human ASIC1b-eYFP fusion, rat ASIC1a-eYFP fusion, mouse ASIC1a-eYFP fusion, hASIC2a-eYFP fusion, hASIC2b-eYFP fusion, and hASIC3a-eYFP fusion were constructed. The CHO-K1 cells were transiently transfected with these plasmids. FACS binding assay and immunocytochemistry (ICC) were carried out to determine if ASC06-IgG1 is able to bind to the cell surface-expressed ASIC homologs and isotypes.

hASIC2a/2b = target: T2, hASIC2a/2b (Homo sapiens, UniProt Q16515)
T2 construct: expressed in transfected cells; host or cells: CHO-K1, transient
T2 sequence (Q16515 1-512): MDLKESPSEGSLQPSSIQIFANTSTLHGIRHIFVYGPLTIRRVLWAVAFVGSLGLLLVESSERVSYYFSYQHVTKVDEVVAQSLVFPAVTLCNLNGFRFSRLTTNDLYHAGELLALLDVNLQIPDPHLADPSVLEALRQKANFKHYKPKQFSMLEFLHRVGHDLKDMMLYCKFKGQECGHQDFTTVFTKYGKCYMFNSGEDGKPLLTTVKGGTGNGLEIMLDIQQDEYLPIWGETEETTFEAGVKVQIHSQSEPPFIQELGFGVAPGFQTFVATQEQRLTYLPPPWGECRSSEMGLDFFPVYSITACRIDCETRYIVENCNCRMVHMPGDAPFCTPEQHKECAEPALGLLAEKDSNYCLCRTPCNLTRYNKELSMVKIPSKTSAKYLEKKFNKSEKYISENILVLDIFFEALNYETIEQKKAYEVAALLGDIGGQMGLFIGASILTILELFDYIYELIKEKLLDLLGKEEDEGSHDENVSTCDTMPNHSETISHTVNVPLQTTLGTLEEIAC
T2 sequence (Q16515 1-563 isoform Q16515-2): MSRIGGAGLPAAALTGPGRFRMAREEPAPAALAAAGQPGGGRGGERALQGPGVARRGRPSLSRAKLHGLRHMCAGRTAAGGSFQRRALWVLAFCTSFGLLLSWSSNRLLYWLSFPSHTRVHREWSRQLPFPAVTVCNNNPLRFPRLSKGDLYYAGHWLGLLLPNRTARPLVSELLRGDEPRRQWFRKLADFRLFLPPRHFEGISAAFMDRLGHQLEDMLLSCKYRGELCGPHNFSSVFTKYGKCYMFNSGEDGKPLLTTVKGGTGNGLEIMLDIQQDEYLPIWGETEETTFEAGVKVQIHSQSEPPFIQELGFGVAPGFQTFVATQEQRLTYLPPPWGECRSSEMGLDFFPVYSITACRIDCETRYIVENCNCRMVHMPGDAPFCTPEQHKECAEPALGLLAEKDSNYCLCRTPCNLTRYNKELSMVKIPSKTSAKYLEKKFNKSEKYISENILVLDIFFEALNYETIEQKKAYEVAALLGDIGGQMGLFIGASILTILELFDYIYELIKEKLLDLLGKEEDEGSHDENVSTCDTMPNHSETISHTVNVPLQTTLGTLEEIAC
Method: as §1

hASIC3a = target: T3, hASIC3a (Homo sapiens, UniProt Q9UHC3)
T3 construct: expressed in transfected cells; host or cells: CHO-K1, transient
T3 sequence (Q9UHC3 1-531): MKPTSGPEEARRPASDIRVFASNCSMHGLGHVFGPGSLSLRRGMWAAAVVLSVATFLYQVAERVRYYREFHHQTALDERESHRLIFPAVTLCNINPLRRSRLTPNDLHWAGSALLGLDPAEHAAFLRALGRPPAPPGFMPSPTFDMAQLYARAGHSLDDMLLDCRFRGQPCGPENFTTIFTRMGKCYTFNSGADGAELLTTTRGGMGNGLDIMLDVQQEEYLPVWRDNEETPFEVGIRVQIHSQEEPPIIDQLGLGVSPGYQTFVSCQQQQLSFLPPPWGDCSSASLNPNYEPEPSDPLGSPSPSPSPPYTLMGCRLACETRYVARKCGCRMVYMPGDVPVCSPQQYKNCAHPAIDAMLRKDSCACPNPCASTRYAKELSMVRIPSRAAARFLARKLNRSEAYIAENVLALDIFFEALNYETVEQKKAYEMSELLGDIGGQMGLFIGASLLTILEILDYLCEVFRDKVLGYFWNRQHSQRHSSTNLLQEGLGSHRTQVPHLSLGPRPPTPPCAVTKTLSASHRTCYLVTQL
Method: as §1

hASIC1b = target: T4, hASIC1b (Homo sapiens, UniProt P78348)
T4 construct: expressed in transfected cells; host or cells: CHO-K1, transient
T4 sequence (P78348 1-562 isoform P78348-3): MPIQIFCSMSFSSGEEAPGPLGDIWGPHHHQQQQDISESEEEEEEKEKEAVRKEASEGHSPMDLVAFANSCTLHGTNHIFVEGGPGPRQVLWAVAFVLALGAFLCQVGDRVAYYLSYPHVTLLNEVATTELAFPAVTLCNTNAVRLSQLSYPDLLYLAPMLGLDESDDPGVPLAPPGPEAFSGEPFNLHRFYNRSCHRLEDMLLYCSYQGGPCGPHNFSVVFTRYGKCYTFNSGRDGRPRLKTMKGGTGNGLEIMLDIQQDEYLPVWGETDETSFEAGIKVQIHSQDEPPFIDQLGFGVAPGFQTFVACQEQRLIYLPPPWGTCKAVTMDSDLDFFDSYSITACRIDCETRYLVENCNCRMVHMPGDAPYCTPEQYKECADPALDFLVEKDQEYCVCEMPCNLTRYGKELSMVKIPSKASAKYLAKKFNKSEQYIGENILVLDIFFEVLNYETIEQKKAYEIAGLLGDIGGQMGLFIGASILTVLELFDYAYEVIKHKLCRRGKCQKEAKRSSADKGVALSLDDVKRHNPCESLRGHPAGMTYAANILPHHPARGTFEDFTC
Method: as §1

B1: ASC06-IgG1: ASC06 antibody converted into a full length IgG1 form (antibody, V domains shown)
VH: QVQLQQSGGGLVQPGGSLRLSCAASGFTFSSYAMSWVRQAPGKGLEWVSAISGSGGSTYYADSVKGRFTISRDNSKNTLYLQMNSLRAEDTAVYYCAKDSFYGYSKGDWGQGTLVTVSS
VL: QSALTQPASVSGSPGQSITISCTGTSSDVGAYNYVSWYQQQPGKAPKLMIYGVSNRPSGVSNRFSGSKSGNAASLTISGLQAEDEADYYCSSYTSSSTYVFGTGTKLTVLG
not: FACS recognition of hASIC2a (hASIC2a) | FACS recognition of hASIC2a/2b (hASIC2a/2b) | FACS recognition of hASIC3a (hASIC3a) | FACS recognition of hASIC1b (hASIC1b)
